Measured values reported in publication PMC8449409 (2021).

Target: T1, β-catenin (Mus musculus, UniProt Q02248)
T1 chain: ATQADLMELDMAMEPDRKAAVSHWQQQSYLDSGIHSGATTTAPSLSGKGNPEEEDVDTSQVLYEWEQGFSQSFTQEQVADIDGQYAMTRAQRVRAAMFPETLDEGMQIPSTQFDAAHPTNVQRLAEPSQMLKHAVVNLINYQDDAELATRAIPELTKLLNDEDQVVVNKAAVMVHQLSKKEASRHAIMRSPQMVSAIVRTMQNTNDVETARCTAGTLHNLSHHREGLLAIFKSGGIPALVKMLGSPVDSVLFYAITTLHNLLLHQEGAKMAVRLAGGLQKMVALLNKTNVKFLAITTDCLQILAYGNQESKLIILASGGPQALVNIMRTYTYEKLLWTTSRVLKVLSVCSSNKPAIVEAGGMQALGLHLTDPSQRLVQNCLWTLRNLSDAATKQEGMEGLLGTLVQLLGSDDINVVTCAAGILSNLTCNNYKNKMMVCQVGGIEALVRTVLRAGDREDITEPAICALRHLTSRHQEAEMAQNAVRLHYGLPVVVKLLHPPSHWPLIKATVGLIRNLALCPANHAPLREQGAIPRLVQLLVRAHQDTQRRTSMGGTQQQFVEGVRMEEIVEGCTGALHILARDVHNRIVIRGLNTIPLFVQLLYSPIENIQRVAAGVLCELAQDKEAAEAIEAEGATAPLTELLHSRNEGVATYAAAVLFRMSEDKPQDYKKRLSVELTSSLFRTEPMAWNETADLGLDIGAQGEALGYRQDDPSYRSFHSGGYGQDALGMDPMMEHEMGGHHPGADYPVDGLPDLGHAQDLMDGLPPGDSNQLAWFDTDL

Kd: > 1 µM
B1: E-cadherin core-binding peptide core-binding region (20 aa) (peptide)
chain: DPTAPPYDSLLVFDYEGSGS
